Data from PMC4635569, “Complement Evasion Mediated by Enhancement of Captured Factor H: Implications for Protection of Self-Surfaces from Complement” (The Journal of Immunology Author Choice, 2015).

Target: T1, human C3b (human, UniProt P01024 23-667; P01024 749-1663)
T1 construct: Amine coupled to the SPR chips (C1 or CM5); source: bought: Complement Technologies, plasma-derived, used without further purification
Test: SPR; C3b (~250 RU) or C3d (~70 RU) amine coupled to adjacent flow cells of a Biacore C1 chip; FH preincubated with or without a 2-fold molar excess of PspCN injected (90 s, 30 μl/min, 400 s dissociation); 1:1 binding model
Settings: both partners purified

T1 sequence (P01024 23-667, chain 1 of 2): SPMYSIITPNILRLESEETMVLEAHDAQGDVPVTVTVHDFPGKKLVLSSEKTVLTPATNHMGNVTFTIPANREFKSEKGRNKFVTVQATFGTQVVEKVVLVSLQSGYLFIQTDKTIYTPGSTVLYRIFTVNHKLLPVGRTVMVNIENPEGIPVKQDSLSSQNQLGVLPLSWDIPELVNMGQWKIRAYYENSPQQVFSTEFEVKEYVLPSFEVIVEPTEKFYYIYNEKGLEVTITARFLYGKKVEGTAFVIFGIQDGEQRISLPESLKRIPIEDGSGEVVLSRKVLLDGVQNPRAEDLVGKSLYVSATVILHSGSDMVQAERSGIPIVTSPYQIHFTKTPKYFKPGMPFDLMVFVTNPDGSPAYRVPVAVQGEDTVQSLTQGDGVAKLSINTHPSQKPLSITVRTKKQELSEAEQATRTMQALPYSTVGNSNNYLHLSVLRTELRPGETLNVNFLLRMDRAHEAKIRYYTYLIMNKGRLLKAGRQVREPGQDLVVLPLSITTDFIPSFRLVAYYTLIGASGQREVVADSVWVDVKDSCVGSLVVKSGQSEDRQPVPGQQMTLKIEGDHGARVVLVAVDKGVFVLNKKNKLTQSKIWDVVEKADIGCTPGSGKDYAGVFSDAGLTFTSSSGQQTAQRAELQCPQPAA
T1 sequence (P01024 749-1663, chain 2 of 2): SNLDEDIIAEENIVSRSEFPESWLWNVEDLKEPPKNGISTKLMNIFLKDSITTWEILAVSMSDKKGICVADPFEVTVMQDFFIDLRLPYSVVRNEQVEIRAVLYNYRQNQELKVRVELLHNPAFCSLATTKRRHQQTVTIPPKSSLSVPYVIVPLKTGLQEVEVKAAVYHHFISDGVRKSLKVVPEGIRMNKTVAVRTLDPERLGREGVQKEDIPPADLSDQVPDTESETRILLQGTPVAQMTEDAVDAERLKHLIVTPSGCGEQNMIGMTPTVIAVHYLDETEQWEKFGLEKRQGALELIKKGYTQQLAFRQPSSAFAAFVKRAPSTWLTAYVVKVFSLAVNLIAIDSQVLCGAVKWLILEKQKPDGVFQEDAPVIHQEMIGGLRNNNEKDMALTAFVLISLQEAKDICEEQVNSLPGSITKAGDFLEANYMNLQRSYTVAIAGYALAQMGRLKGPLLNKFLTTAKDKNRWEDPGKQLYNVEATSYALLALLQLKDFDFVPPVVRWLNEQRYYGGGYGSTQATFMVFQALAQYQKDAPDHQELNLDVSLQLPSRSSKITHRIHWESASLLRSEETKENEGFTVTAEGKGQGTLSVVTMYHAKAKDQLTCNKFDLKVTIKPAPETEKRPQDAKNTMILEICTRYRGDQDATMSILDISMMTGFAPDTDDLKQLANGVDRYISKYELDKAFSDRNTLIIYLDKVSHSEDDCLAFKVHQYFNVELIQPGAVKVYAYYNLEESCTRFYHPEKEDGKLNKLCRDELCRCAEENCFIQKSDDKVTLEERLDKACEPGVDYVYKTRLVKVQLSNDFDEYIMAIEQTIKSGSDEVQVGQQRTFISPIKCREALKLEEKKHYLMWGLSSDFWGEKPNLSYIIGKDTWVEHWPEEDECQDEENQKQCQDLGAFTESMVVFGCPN

B1: plasma-derived human complement factor H (natural protein)
chain: EDCNELPPRRNTEILTGSWSDQTYPEGTQAIYKCRPGYRSLGNVIMVCRKGEWVALNPLRKCQKRPCGHPGDTPFGTFTLTGGNVFEYGVKAVYTCNEGYQLLGEINYRECDTDGWTNDIPICEVVKCLPVTAPENGKIVSSAMEPDREYHFGQAVRFVCNSGYKIEGDEEMHCSDDGFWSKEKPKCVEISCKSPDVINGSPISQKIIYKENERFQYKCNMGYEYSERGDAVCTESGWRPLPSCEEKSCDNPYIPNGDYSPLRIKHRTGDEITYQCRNGFYPATRGNTAKCTSTGWIPAPRCTLKPCDYPDIKHGGLYHENMRRPYFPVAVGKYYSYYCDEHFETPSGSYWDHIHCTQDGWSPAVPCLRKCYFPYLENGYNQNYGRKFVQGKSIDVACHPGYALPKAQTTVTCMENGWSPTPRCIRVKTCSKSSIDIENGFISESQYTYALKEKAKYQCKLGYVTADGETSGSITCGKDGWSAQPTCIKSCDIPVFMNARTKNDFTWFKLNDTLDYECHDGYESNTGSTTGSIVCGYNGWSDLPICYERECELPKIDVHLVPDRKKDQYKVGEVLKFSCKPGFTIVGPNSVQCYHFGLSPDLPICKEQVQSCGPPPELLNGNVKEKTKEEYGHSEVVEYYCNPRFLMKGPNKIQCVDGEWTTLPVCIVEESTCGDIPELEHGWAQLSSPPYYYGDSVEFNCSESFTMIGHRSITCIHGVWTQLPQCVAIDKLKKCKSSNLIILEEHLKNKKEFDHNSNIRYRCRGKEGWIHTVCINGRWDPEVNCSMAQIQLCPPPPQIPNSHNMTTTLNYRDGEKVSVLCQENYLIQEGEEITCKDGRWQSIPLCVEKIPCSQPPQIEHGTINSSRSSQESYAHGTKLSYTCEGGFRISEENETTCYMGKWSSPPQCEGLPCKSPPEISHGVVAHMSDSYQYGEEVTYKCFEGFGIDGPAIAKCLGEKWSHPPSCIKTDCLSLPSFENAIPMGEKKDVYKAGEQVTYTCATYYKMDGASNVTCINSRWTGRPTCRDTSCVNPPTVQNAYIVSRQMSKYPSGERVRYQCRSPYEMFGDEEVMCLNGNWTEPPQCKDSTGKCGPPPPIDNGDITSFPLSVYAPASSVEYQCQNLYQLEGNKRITCRNGQWSEPPKCLHPCVISREIMENYNIALRWTAKQKLYSRTGESVEFVCKRGYRLSSRSHTLRTTCWDGKLEYPTCAKR
notes: complement factor H (FH), human, 20 CCP modules, plasma-derived; Glycosylated plasma protein; monomer of 155 kDa by SEC-MALS; also called FH; plasma-purified human FH; source: bought: Complement Technologies, plasma-derived, used without further purification
B1 showed a Kd of 490 nM.

B2: recombinant human FH with a wild-type sequence (natural protein)
chain: EDCNELPPRRNTEILTGSWSDQTYPEGTQAIYKCRPGYRSLGNVIMVCRKGEWVALNPLRKCQKRPCGHPGDTPFGTFTLTGGNVFEYGVKAVYTCNEGYQLLGEINYRECDTDGWTNDIPICEVVKCLPVTAPENGKIVSSAMEPDREYHFGQAVRFVCNSGYKIEGDEEMHCSDDGFWSKEKPKCVEISCKSPDVINGSPISQKIIYKENERFQYKCNMGYEYSERGDAVCTESGWRPLPSCEEKSCDNPYIPNGDYSPLRIKHRTGDEITYQCRNGFYPATRGNTAKCTSTGWIPAPRCTLKPCDYPDIKHGGLYHENMRRPYFPVAVGKYYSYYCDEHFETPSGSYWDHIHCTQDGWSPAVPCLRKCYFPYLENGYNQNYGRKFVQGKSIDVACHPGYALPKAQTTVTCMENGWSPTPRCIRVKTCSKSSIDIENGFISESQYTYALKEKAKYQCKLGYVTADGETSGSITCGKDGWSAQPTCIKSCDIPVFMNARTKNDFTWFKLNDTLDYECHDGYESNTGSTTGSIVCGYNGWSDLPICYERECELPKIDVHLVPDRKKDQYKVGEVLKFSCKPGFTIVGPNSVQCYHFGLSPDLPICKEQVQSCGPPPELLNGNVKEKTKEEYGHSEVVEYYCNPRFLMKGPNKIQCVDGEWTTLPVCIVEESTCGDIPELEHGWAQLSSPPYYYGDSVEFNCSESFTMIGHRSITCIHGVWTQLPQCVAIDKLKKCKSSNLIILEEHLKNKKEFDHNSNIRYRCRGKEGWIHTVCINGRWDPEVNCSMAQIQLCPPPPQIPNSHNMTTTLNYRDGEKVSVLCQENYLIQEGEEITCKDGRWQSIPLCVEKIPCSQPPQIEHGTINSSRSSQESYAHGTKLSYTCEGGFRISEENETTCYMGKWSSPPQCEGLPCKSPPEISHGVVAHMSDSYQYGEEVTYKCFEGFGIDGPAIAKCLGEKWSHPPSCIKTDCLSLPSFENAIPMGEKKDVYKAGEQVTYTCATYYKMDGASNVTCINSRWTGRPTCRDTSCVNPPTVQNAYIVSRQMSKYPSGERVRYQCRSPYEMFGDEEVMCLNGNWTEPPQCKDSTGKCGPPPPIDNGDITSFPLSVYAPASSVEYQCQNLYQLEGNKRITCRNGQWSEPPKCLHPCVISREIMENYNIALRWTAKQKLYSRTGESVEFVCKRGYRLSSRSHTLRTTCWDGKLEYPTCAKR
notes: Secreted from P. pastoris, so the native signal peptide is probably absent (surmise); also called rFH; recombinant wild-type FH; source: Pichia pastoris (fermentor), purified after enzymatic deglycosylation
With B2 the Kd was 600 nM.

B3: recombinant FH(D1119G) (natural protein)
chain: EDCNELPPRRNTEILTGSWSDQTYPEGTQAIYKCRPGYRSLGNVIMVCRKGEWVALNPLRKCQKRPCGHPGDTPFGTFTLTGGNVFEYGVKAVYTCNEGYQLLGEINYRECDTDGWTNDIPICEVVKCLPVTAPENGKIVSSAMEPDREYHFGQAVRFVCNSGYKIEGDEEMHCSDDGFWSKEKPKCVEISCKSPDVINGSPISQKIIYKENERFQYKCNMGYEYSERGDAVCTESGWRPLPSCEEKSCDNPYIPNGDYSPLRIKHRTGDEITYQCRNGFYPATRGNTAKCTSTGWIPAPRCTLKPCDYPDIKHGGLYHENMRRPYFPVAVGKYYSYYCDEHFETPSGSYWDHIHCTQDGWSPAVPCLRKCYFPYLENGYNQNYGRKFVQGKSIDVACHPGYALPKAQTTVTCMENGWSPTPRCIRVKTCSKSSIDIENGFISESQYTYALKEKAKYQCKLGYVTADGETSGSITCGKDGWSAQPTCIKSCDIPVFMNARTKNDFTWFKLNDTLDYECHDGYESNTGSTTGSIVCGYNGWSDLPICYERECELPKIDVHLVPDRKKDQYKVGEVLKFSCKPGFTIVGPNSVQCYHFGLSPDLPICKEQVQSCGPPPELLNGNVKEKTKEEYGHSEVVEYYCNPRFLMKGPNKIQCVDGEWTTLPVCIVEESTCGDIPELEHGWAQLSSPPYYYGDSVEFNCSESFTMIGHRSITCIHGVWTQLPQCVAIDKLKKCKSSNLIILEEHLKNKKEFDHNSNIRYRCRGKEGWIHTVCINGRWDPEVNCSMAQIQLCPPPPQIPNSHNMTTTLNYRDGEKVSVLCQENYLIQEGEEITCKDGRWQSIPLCVEKIPCSQPPQIEHGTINSSRSSQESYAHGTKLSYTCEGGFRISEENETTCYMGKWSSPPQCEGLPCKSPPEISHGVVAHMSDSYQYGEEVTYKCFEGFGIDGPAIAKCLGEKWSHPPSCIKTDCLSLPSFENAIPMGEKKDVYKAGEQVTYTCATYYKMDGASNVTCINSRWTGRPTCRDTSCVNPPTVQNAYIVSRQMSKYPSGERVRYQCRSPYEMFGDEEVMCLNGNWTEPPQCKDSTGKCGPPPPIDNGGITSFPLSVYAPASSVEYQCQNLYQLEGNKRITCRNGQWSEPPKCLHPCVISREIMENYNIALRWTAKQKLYSRTGESVEFVCKRGYRLSSRSHTLRTTCWDGKLEYPTCAKR
notes: complement factor H, human, full-length, with the aHUS-linked substitution D1119G (CCP 19); Expression-optimized synthetic DNA; Secreted from P. pastoris, so the native signal peptide is probably absent (surmise); also called rFH(D1119G); rFH; source: Pichia pastoris (vector pPICZαB), purified as described for rFH
Binder B3 has a Kd of 540 nM.
